Columns and labels:
[1] = molecular target: T1, HLA-A*02:01 on T2 cells alone (no peptide added) (human); assay: flow cytometry, phage on T2 without peptide; secondary only 118, unstained 95.2
T1 construct: TAP-deficient T2 cells without pulsed peptide; negative control target, and the HLA molecule whose stabilisation by peptides is read in the T2 stabilization assay; also called HLA-A*02 molecule; HLA-A2 molecule

[2] = molecular target: T1, HLA-A*02:01 on T2 cells alone (no …); assay: flow cytometry, phage on T2 without peptide
[3] = molecular target: T2, R3 (RHAMM-R3) peptide/HLA-A*02:01 complex on T2 cells (human); assay: flow cytometry, phage on T2 + R3 peptide; secondary only 126, unstained 94.4
T2 construct: Control target of the phage staining of T2 cells; also called T2 cells pulsed with R3 peptide; RHAMM 3 (R3)

[4] = molecular target: T3, Foxp3-7 peptide/HLA-A*02:01 complex on the cell surface (human); assay: flow cytometry, phage on T2 + Foxp3-7 peptide; secondary only 116, unstained 93.8
T3 construct: also called Foxp3-7/HLA-A2 complex

T2+EW [5] = molecular target: T4, T2+EW (Homo sapiens, UniProt A*02:01); assay: flow cytometry, phage on T2 + EW peptide; secondary only 310, unstained 93
T4 construct: on the surface of T2 cells; irrelevant control peptide; also called EW peptide/HLA-A*02:01 complex on T2 cells; T2 pulsed with EW peptide

[6] = molecular target: T1, HLA-A*02:01 on T2 cells alone (no …); assay: flow cytometry, phage on T2 cells
[7] = molecular target: T3, Foxp3-7 peptide/HLA-A*02:01 complex on …; assay: flow cytometry, phage on T2 + Foxp3-7 peptide; secondary only 318, unstained 95.8
[8] = molecular target: T1, HLA-A*02:01 on T2 cells alone (no …); assay: flow cytometry, phage on T2 without peptide; secondary only 320, unstained 91.4
[9] = molecular target: T1, HLA-A*02:01 on T2 cells alone (no …); assay: flow cytometry, phage on T2 without peptide; secondary only 121, unstained 106
[10] = molecular target: T2, R3 (RHAMM-R3) peptide/HLA-A*02:01 …; assay: flow cytometry, phage on T2 + R3 peptide; secondary only 123, unstained 99.8
[11] = molecular target: T1, HLA-A*02:01 on T2 cells alone (no …); assay: flow cytometry, phage on T2 without peptide; secondary only 100, unstained 99.5
T2+EW [12] = molecular target: T4, T2+EW; assay: flow cytometry, phage on T2 + EW peptide; secondary only 113, unstained 94.7
[13] = molecular target: T3, Foxp3-7 peptide/HLA-A*02:01 complex on …; assay: flow cytometry, phage on T2 + Foxp3-7 peptide; secondary only 133, unstained 103
[14] = molecular target: T3, Foxp3-7 peptide/HLA-A*02:01 complex on …; assay: flow cytometry, phage on T2 + Foxp3-7 peptide; secondary only 104, unstained 81.7
[15] = molecular target: T2, R3 (RHAMM-R3) peptide/HLA-A*02:01 …; assay: flow cytometry, phage on T2 + R3 peptide (as the table names the samples); secondary only 109, unstained 80.9

B1: (FoxP2)_#12 (scFv)
scFv (VL-linker-VH-His/HA tag): SYELTQPPSVSVAPGKTARITCGGNNIGSKSVHWYQQKPGQAPVLVIYYDSDRPSGIPERFSGSNSGNTATLTISRVEAGDEADYYCQVWDSSSDHRVFGGGTKVTVLGSRGGGGSGGGGSGGGGSLEMAEVQLVESGGGLVQPGGSLRLSCAASGFTFSSYWMNWVRQAPGKGLEWVANIKQDGSEKNYVDSVKGRFTISRDNAKNSLYLQMNSLRGEDTAVYYCARYGGGPYDSWGQGTLVTVSSTSGQAGQHHHHHHGAYPYDVPDYAS
notes: also called EXT019-12 scFv phage clone
Median:FITC-A [1]: 151
binding result [2]: no binding
Median:FITC-A [3]: 151

B2: EXT017-26 scFv phage clone (scFv)
scFv: SYVLTQPPSVSVAPGQTARITCGGTDIRRKTVHWYQQKPGLAPVLVLYDDSDRPSGIPERFSGSNSGNTATLTISRVEGGDEADYYCQVWDNDNDHYVFGPGTKVTVLGSRGGGGSGGGGSGGGGSLEMAEVQLVQSGAEVKKPGASVKVSCKASGYTFTNYYIHWVRQTPGEGLEWMGIIRPSGGNTNYAQKFQGRVTMTRDTSTRTVYMELSSLRSEDTAVYYCARSWDTFSDEWGQGTLVTVSSTSGQAGQHHHHHHGAYPYDVPDYAS
notes: also called phage clone #26
Median:FITC-A [4]: 410
Median:FITC-A (T2+EW [5]): 375
binding result [6]: no binding
Median:FITC-A [7]: 1880
Median:FITC-A [8]: 385
Median:FITC-A [9]: 146
Median:FITC-A [10]: 144

B3: (FoxP2)_#13 (scFv)
scFv (VL-linker-VH-His/HA tag): LPVLTQPPSVSVAPGKTARITCGGNNIGSKSVHWYQQKPGQAPVLVIYYDSDRPSGIPERFSGSNSGNTATLTISRVEAGDEADYYCQVWDSSSAYVFGTGTKVTVLGSRGGGGSGGGGSGGGGSLEMAQVQLQQSGPGLVKPSQTLSLTCAISGDSVSSNSAAWNWIRQSPSRGLEWLGRTYYRSKWYNDYAVSVKSRITINPDTSKNQFSLQLNSVTPEDTAVYYCARYYSTSLDSWGQGTLVTVSSTSGQAGQHHHHHHGAYPYDVPDYAS
notes: also called EXT019-13 scFv phage clone
Median:FITC-A [1]: 143
binding result [2]: no binding
Median:FITC-A [3]: 141

B4: EXT017-9 scFv phage clone (scFv)
scFv: QSALTQPASASGSPGQSVTISCTGTSSDVGGYNYVSWYQQHPGKAPKLMIYEVSKRPSGVPDRFSGSKSGNTASLTVSGLQAEDEADYYCSSYAGSNNVVFGGGTKLTVLGSRGGGGSGGGGSGGGGSLEMAEVQLVQSGAEVKKPGASVKISCKASRYTFTNYYIHWVRQAPGQGLEWMGIINPSGGSTTYPQNFQGRLTMTRDTSTSTVYMELSSLRSEDTAMYYCARGWSGYDPGDFWGQGTLVTVSSTSGQAGQHHHHHHGAYPYDVPDYAS
notes: also called phage clone #9
Median:FITC-A [4]: 287
binding result [6]: no binding
Median:FITC-A [11]: 149
Median:FITC-A (T2+EW [12]): 151
Median:FITC-A [9]: 150
Median:FITC-A [10]: 144
Median:FITC-A [13]: 1730

B5: #30 (scFv)
scFv: SYVLTQPPSVSVAPGQTARMTCEGSNLGSKSVHWYQQKPGQAPVLVVHDDSDRPSGIPDRFSGSKSGNTATLTISRVEAGDEADYYCQVWHSSSDHYVFGTATKVTVLGSRGGGGSGGGGSGGGGSLEMAQVQLVQSGAEVKKPGASVKVSCKASGYTFTNYYIHWVRQAPGQGLEWMGIIRPSGGITNYAQKFQGRVSMTRDTSTSTVYMELSSLRSEDTAVYYCARSWHENSGVDSWGQGTLVTVSSTSGQAGQHHHHHHGAYPYDVPDYAS
notes: also called EXT017-30; EXT017-30 scFv phage clone
Median:FITC-A (T2+EW [5]): 378
Median:FITC-A [7]: 1130
Median:FITC-A [8]: 354

B6: (FoxP2)_#20 (scFv)
scFv (VL-linker-VH-His/HA tag): SYVLTQPPSVSVAPGKTARITCGGNNIGSKSVHWYQQKPGQAPVLVIYYDSDRPSGIPERFSGSNSGNTATLTISRVEAGDEADYYCQVWDSSSDRVVFGGGTKLTVLGSRGGGGSGGGGSGGGGSLEMAQVQLQQSGPGLVKPSQTLSLTCAISGDSISSKSAAWNWIRQSPSRGLEWLGRTYYRSKWYYEYAPSVRSRITINRDTSKNQFSLQLNSVTPEDTAVYYCARSTGTFDYWGQGTLVTVSSTSGQAGQHHHHHHGAYPYDVPDYAS
notes: also called EXT019-20 scFv phage clone
Median:FITC-A [1]: 149
binding result [2]: no binding
Median:FITC-A [3]: 148

B7: EXT017-11 scFv phage clone (scFv)
scFv: NFMLTQPHSVSESPGKTVTISCTRSSGSIASNYVQWYQQRPGSAPTTVIYEDNQRPSGVPDRFSGSIDSSSNSASLTISGLKTEDEADYYCQSYDTNNYGVIFGGGTKLTVLGSRGGGGSGGGGSGGGGSLEMAQMQLVQSGAEVKKPGASVKVSCKTSGYTFNNYYMHWVRQAPGQGLEWMGIINPSGGSTNYAQKFQGRVTMTRDTSTSTVYMELSSLRSEDTAVYYCARSFDKQDIDYWGQGTLVTVSSTSGQAGQHHHHHHGAYPYDVPDYAS
notes: also called phage clone #11
Median:FITC-A [4]: 454
binding result [6]: no binding
Median:FITC-A [14]: 2620
Median:FITC-A [11]: 142
Median:FITC-A [15]: 119
Median:FITC-A (T2+EW [12]): 143
Median:FITC-A [9]: 143
Median:FITC-A [10]: 144
Median:FITC-A [13]: 1690

B8: (FoxP2)_#8 (scFv)
scFv (VL-linker-VH-His/HA tag): QSVLTQPPSVSEAPRQRVTISCSGSSSNIGNNAVNWYQQLPGKAPKLLIYYDDLLPSGVSDRFSGSKSGTSASLAISGLQSEDEADYYCAAWDDSLNGPVFGTGTKVTVLGSRGGGGSGGGGSGGGGSLEMAEVQLVQSGAEVKKPGASVKVSCKASGYNFTSYGISWVRQAPGQGLEWMGWISAYNGNTNYAQKLQGRVTMTTDTSTSTAYMELRSLRSDDTAVYYCARDWDYDFLTGWDGMDVWGQGTTVTVSSTSGQAGQHHHHHHGAYPYDVPDYAS
notes: also called EXT019-8; EXT019-08 scFv phage clone
Median:FITC-A [1]: 141
binding result [2]: no binding
Median:FITC-A [3]: 142

B9: (FoxP2)_#4 (scFv)
scFv (VL-linker-VH-His/HA tag): QPVLTQPPSVSVAPGKTARITCGGNNIGSKSVHWYQQKPGQAPVLVIYYDSDRPSGIPERFSGSNSGNTATLTISRVEAGDEADYYCQVWDSSSDHPVFGGGTKLTVLGSRGGGGSGGGGSGGGGSLEMAQVQLVQSGAEVKKPGSSVKVSCKASGGTFSSYAISWVRQAPGQGLEWMGGIIPIFGTANYAQKFQGRVTITADESTSTAYMELSSLRSEDTAVYYCARSSYWWTSDRWGQGTLVTVSSTSGQAGQHHHHHHGAYPYDVPDYAS
notes: also called EXT019-4; EXT019-04 scFv phage clone
Median:FITC-A [1]: 147
binding result [2]: no binding
Median:FITC-A [3]: 145

B10: (FoxP2)_#6 (scFv)
scFv (VL-linker-VH-His/HA tag): QSVVTQPPSVSGAPGQGVTIPCTGSSSNIGAGYDVHWYQQLPGTAPKLLIYGNNNRPSGVPDRFSGSRSGSSASLAITGLQAEDEADYYCQSYDSSLSDVVFGGGTKLTVLGSRGGGGSGGGGSGGGGSLEMAEVQLVQSGAEVKKPGESLKISCKGSGYNFASEWIGWVRQMPGKGLEWMGLIYPAESEITYSPSFQGQVTISVDKSISTAYLQWSSLKASDTAMYYCARAWDANYIYMDIWGQGTLVTVSSTSGQAGQHHHHHHGAYPYDVPDYAS
notes: also called EXT019-6; EXT019-06 scFv phage clone
Median:FITC-A [1]: 146
binding result [2]: no binding
Median:FITC-A [3]: 157

B11: (FoxP2)_#9 (scFv)
scFv (VL-linker-VH-His/HA tag): SYELTQPPSVSVAPGKTARITCGGNNIGSKSVHWYQQKPGQAPVLVIYYDSDRPSGIPERFSGSNSGNTATLTISRVEAGDEADYYCQVWDSSSDHWVFGGGTKLTVLGSRGGGGSGGGGSGGGGSLEMAQVQLVQSGGGLVQPGGSLKLSCAASGFAFSGSSLHWVRQASGKGLEWVGRITSKAYNYATLYAASVKGRFTISRDDSKNTAYLQMNSLQTEDTAVYYCTQTGDSSAYWGQGTLVTVSSTSGQAGQHHHHHHGAYPYDVPDYAS
notes: also called EXT019-9; EXT019-09 scFv phage clone
Median:FITC-A [1]: 140
binding result [2]: no binding
Median:FITC-A [3]: 148

B12: (FoxP2)_#15 (scFv)
scFv (VL-linker-VH-His/HA tag): SYVLTQPPSVSVAPGETASITCGANNIGSESVHWYQQKSGQAPVLVIYYDSDRPSGIPERFSGSNSDNTATLTISRVEAGDEADYYCQVWDHINDHYVFGSGTKVTVLGSRGGGGSGGGGSGGGGSLEMAEVQLVESGGGLAQPGGSLRLSCAASGFSFSNYAMSWVRQAPGTGLEWVAGISGRGGSIHYADSVKGRFTISRDNSQSTVFLQMNNLGAEDTAIYYCAKSSEDYYFYHMDAWGIGTTVTVSSTSGQAGQHHHHHHGAYPYDVPDYAS
notes: also called EXT019-15 scFv phage clone
Median:FITC-A [1]: 145
binding result [2]: no binding
Median:FITC-A [3]: 145
